The results in this text go back to FireProtDB (doi:10.1021/bi00015a036).

The conditions of this series: Bacillus amyloliquefaciens, Thermal, DSC, reversible: yes (~80%), whole UniProt chain shown.

B1: Ribonuclease wild type, P00648 (protein)
chain: MMKMEGIALKKRLSWISVCLLVLVSAAGMLFSTAAKTETSSHKAHTEAQVINTFDGVADYLQTYHKLPDNYITKSEAQALGWVASKGNLADVAPGKSIGGDIFSNREGKLPGKSGRTWREADINYTSGFRNSDRILYSSDWLIYKTTDHYQTFTKIR
Usually Tm stands for the temperature at which the thermal transition is half complete. On to B1, for which the Tm runs as follows: (pH 7, PIPES 50 mM) 54 °C; (pH 10, CAPS 50 mM) 48.6 °C; (pH 10.3, CAPS 50 mM) 48.4 °C; (pH 10.5, CAPS 50 mM) 47.4 °C. Moreover, the “unfolding enthalpy (calorimetric)” value was determined as 132 kcal/mol (pH 7, PIPES 50 mM); 122 kcal/mol (pH 10, CAPS 50 mM); 121 kcal/mol (pH 10.3, CAPS 50 mM); 120 kcal/mol (pH 10.5, CAPS 50 mM).
